# Test results taken from patent publication US20190064177A1, “INCORPORATING COMPETITIVE BINDING INFORMATION INTO MOLECULAR ARRAY ANALYSIS TO GENERATE FUNCTION NETWORKS OF INTERACTIONS” (ARIZONA BOARD OF REGENTS ON BEHALF OF ARIZONA STATE …, priority 2017, published 2019).
# B1: … (peptide)
# peptide: RWQYYNQKFGSG
# B2: … (peptide)
# peptide: DLFQLVFSGSG
# B3: … (peptide)
# peptide: YRPYGPVYNGGSG
# B4: … (peptide)
# peptide: RWSFPAKGGSG
# B5: … (peptide)
# peptide: RYYPAFSGGSG
# Molecular target: Diaphorase
# Test: peptide array, 1 uM labeled diaphorase, no FAD
row,Binder,fluorescence
1,B1,15700
2,B2,5780
3,B3,18700
4,B4,10000
5,B5,21900

# Molecular target: Diaphorase
# Test: peptide array, 10 uM labeled diaphorase, no FAD
row,Binder,fluorescence
1,B2,32700

# Molecular target: Diaphorase
# Test: peptide array, 1 uM labeled diaphorase, with FAD
row,Binder,fluorescence
1,B1,5460
2,B2,9010
3,B3,6760
4,B4,3610
5,B5,7540

# Molecular target: Diaphorase
# Test: peptide array, 10 uM labeled diaphorase, with FAD
row,Binder,fluorescence
1,B4,51200

# Molecular target: Diaphorase
# Test: peptide array, 1 uM diaphorase, binding without FAD / with FAD
row,Binder,noFAD/FAD
1,B1,2.88
2,B2,0.641
3,B3,2.77
4,B4,2.77
5,B5,2.91

# Molecular target: Diaphorase
# Test: peptide array, 10 uM diaphorase, binding without FAD / with FAD
row,Binder,noFAD/FAD
1,B1,1
2,B2,0.499
3,B3,1
4,B4,1.28
5,B5,1

# Molecular target: Diaphorase
# Test: peptide array, 10 uM labeled diaphorase, no FAD; detector saturation
row,Binder,fluorescence
1,B1,> 65500
2,B3,> 65500
3,B4,> 65500
4,B5,> 65500

# Molecular target: Diaphorase
# Test: peptide array, 10 uM labeled diaphorase, with FAD; detector saturation
row,Binder,fluorescence
1,B1,> 65500
2,B2,> 65500
3,B3,> 65500
4,B5,> 65500
